Experimental data reported in article doi:10.1101/2022.01.06.475303.

Target: SARS-CoV-2 receptor binding domain (RBD), Wuhan-1 (SARS-CoV-2 Wuhan-Hu-1) (UniProt P0DTC2)

CC6.33 IgG (antibody)
neutralization IC50 against pseudotyped SARS-CoV-2 (Hela-hACE2 cells): 228 ng/mL
